Experimental data from article PMC9561264, “Direct hOGG1-Myc interactions inhibit hOGG1 catalytic activity and recruit Myc to its promoters under oxidative stress”.

Experiments:
Details in all cases: protein: recombinant; tags: N-terminal His6 (removed by protease where required); label: 5' AF647 (FP) or Cy3 (EMSA) on bottom strand; blunt
hOGG1 wild type [1] = target: T1, hOGG1 wild type (human, UniProt O15527 1-345); test: fluorescence polarisation; reducing; FP at 25°C with 5 nM labelled DNA; EMSA room temp 30 min, 15% native PAGE 0.5x TBE 4°C; interaction buffer 20 mM Tris-HCl pH 7.6, 200 mM NaCl (Fig. S12); reducing (5 mM DTT in EMSA) or oxidising (pre-oxidised hOGG1)
T1 sequence (O15527 whole entry): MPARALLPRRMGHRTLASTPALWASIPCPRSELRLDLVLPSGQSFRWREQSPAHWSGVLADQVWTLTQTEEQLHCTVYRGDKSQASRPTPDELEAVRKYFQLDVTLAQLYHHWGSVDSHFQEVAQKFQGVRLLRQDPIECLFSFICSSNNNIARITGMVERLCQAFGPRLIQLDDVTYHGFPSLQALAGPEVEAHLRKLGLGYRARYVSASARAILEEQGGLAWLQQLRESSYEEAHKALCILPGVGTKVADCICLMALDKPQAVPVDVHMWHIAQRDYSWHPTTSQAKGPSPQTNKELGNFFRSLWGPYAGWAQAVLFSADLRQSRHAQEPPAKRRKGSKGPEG

hOGG1 wild type [2] = target: T1, hOGG1 wild type; test: fluorescence polarisation; oxidising, pre-oxidised hOGG1; FP at 25°C with 5 nM labelled DNA; EMSA room temp 30 min, 15% native PAGE 0.5x TBE 4°C; interaction buffer 20 mM Tris-HCl pH 7.6, 200 mM NaCl (Fig. S12); reducing (5 mM DTT in EMSA) or oxidising (pre-oxidised hOGG1)
hOGG1 wild type [3] = target: T1, hOGG1 wild type; test: fluorescence polarisation; oxidising; FP at 25°C with 5 nM labelled DNA; EMSA room temp 30 min, 15% native PAGE 0.5x TBE 4°C; interaction buffer 20 mM Tris-HCl pH 7.6, 200 mM NaCl (Fig. S12); reducing (5 mM DTT in EMSA) or oxidising (pre-oxidised hOGG1)

| Binder | Kd (hOGG1 wild type [1]) [nM] | Kd (hOGG1 wild type [2]) [nM] | Kd (hOGG1 wild type [3]) [nM] |
| --- | --- | --- | --- |
| oxoG 48 bp (EMSA/FP) (dsDNA, 8-oxoguanine at position 10 of strand 1 (written G)) DNA 1: GCATGCCTCGAGTCTAGAGGTACCAGATCTGATCCTCTAGAGTCGACC DNA 2: GGTCGACTCTAGAGGATCAGATCTGGTACCTCTAGACTCGAGGCATGC | 66 ± 5 | 140 ± 9 | – |
| undamaged (nsp) 48 bp (dsDNA) DNA 1: GCATGCCTCGAGTCTAGAGGTACCAGATCTGATCCTCTAGAGTCGACC DNA 2: GGTCGACTCTAGAGGATCAGATCTGGTACCTCTAGACTCGAGGCATGC | 252 ± 43 | – | 250 ± 18 |
